Numbering of substitutions follows the chain as printed.
T1: LXR/RXR heterodimer (LXRalpha (NR1H3)/RXR; isoforms in EMSA not stated) (UniProt Q9Z0Y9;P28700 Q9Z0Y9:1-445,P28700:1-467)
T1 sequence 1: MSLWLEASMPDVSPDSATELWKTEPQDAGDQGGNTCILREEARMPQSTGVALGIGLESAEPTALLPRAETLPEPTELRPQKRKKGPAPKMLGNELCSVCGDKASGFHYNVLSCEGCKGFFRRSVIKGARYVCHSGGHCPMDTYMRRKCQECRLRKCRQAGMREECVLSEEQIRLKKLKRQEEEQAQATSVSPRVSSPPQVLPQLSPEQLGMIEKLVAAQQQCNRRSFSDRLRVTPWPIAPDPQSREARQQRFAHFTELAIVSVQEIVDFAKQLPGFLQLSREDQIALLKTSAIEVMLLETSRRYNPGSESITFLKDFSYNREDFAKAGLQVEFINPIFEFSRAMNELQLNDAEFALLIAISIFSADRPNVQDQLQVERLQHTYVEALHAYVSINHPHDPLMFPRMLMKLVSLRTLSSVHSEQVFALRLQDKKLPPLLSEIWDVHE
T1 sequence 2: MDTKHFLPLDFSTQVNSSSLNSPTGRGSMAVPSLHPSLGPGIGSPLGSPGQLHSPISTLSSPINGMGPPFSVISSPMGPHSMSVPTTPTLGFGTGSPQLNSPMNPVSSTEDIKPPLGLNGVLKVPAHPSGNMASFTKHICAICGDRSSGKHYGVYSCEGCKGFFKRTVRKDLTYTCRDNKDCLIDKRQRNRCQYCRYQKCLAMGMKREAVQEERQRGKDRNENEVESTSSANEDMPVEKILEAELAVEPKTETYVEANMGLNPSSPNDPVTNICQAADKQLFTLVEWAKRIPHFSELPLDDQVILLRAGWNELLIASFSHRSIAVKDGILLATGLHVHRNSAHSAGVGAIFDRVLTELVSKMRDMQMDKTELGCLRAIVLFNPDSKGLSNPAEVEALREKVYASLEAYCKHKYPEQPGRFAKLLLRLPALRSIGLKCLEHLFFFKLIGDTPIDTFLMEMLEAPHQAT

B1: Mylip WT DR4 LXRE (dsDNA)
DNA 1: TCCCTACTTAACCTACAATGACCTCAAGTTTC
DNA 2: GAAACTTGAGGTCATTGTAGGTTAAGTAGGGA
B2: Mylip MUT DR4 LXRE (dsDNA)
DNA 1: B1 DNA 1 with A11T, C12T, A21T, C22T
DNA 2: B1 DNA 2 with G11A, T12A, G21A, T22A

What was measured:
[1] = biological target: T1, LXR/RXR heterodimer (LXRalpha …); experiment: EMSA; binding competed by excess unlabeled Mylip LXRE; protein source not stated; conditions: label: radiolabeled
Procedure: (§1) It also could not be secondary to induction of SREBP-1c, because oxysterols that block SREBP processing still induced Mylip expression (FIG. 6B). LXRs activate target genes by binding to consensus elements (LXREs) in their promoters. We identified an LXRE approximately 2.5 kb upstream of the mouse Mylip translation start site (FIG. 6C) and generated a reporter construct encompassing this region.
(§2) A 10 Kb promotor region upstream of the mMylip transcription initiation site was analyzed for the presence of LXR binding elements. A consensus DR4 site was identified 2454 upstream of the transcription initiation site. Olignoucleotides encompassing this element were designed, annealed and tested for binding to LXR/RXR heterodimers in a standard EMSA assay. A 2.5 kB promotor fragment upstream of the transcription initiation site containing the identified LXRE was amplified by PCR from BAC clone RP23-17N24 using mMylip-prom-FWD […] (SEQ ID NO:20) or mMylip-prom-ΔFWD […] (SEQ ID NO:21) with the common antisense primer mMylip-prom-REV […] (SEQ ID NO:22). Amplified fragments were cloned as SacI/XhoI fragments into pGL3 basic (Promega). Promotor analysis was done as previously described (Joseph et al. (2002) J Biol Chem 277: 11019).

[2] = biological target: T1, LXR/RXR heterodimer (LXRalpha …); experiment: EMSA; no binding to mutant LXRE; conditions: label: radiolabeled
Procedure: as §1, §2

Binder | binding result [1] | binding result [2]
B1 | binds | –
B2 | – | no binding

Reference: US20140072580, “NOVEL TARGETS FOR TREATMENT OF HYPERCHOLESTEROLEMIA” (THE REGENTS OF THE UNIVERSITY OF CALIFORNIA, published 2014)
